Where no end group is shown, it is not given here.
Key:
[1] = molecular target: T1, Peptide 2 (human); experiment: solid phase ELISA, BSA-conjugated peptide on plate
T1 construct: Synthetic peptide; lacks the C-terminal aspartic acid of Peptide 1
T1 peptide: {BSA}-RRLLEDGEDFNLGDAL
Experimental: (1) BSA was added to the N-terminus of Peptide 1 and Peptide 2. (2) Each peptide was added to an ELISA plate at 5 μg/mL and 100 μL/well, and the plate was allowed to stand at 4° C. overnight to immobilize the peptide. Thereafter, the plate was washed three times with PBST, and Buffer I′ (10 mM NaH₂PO₄.2H₂O, 149.7 mM NaCl, 2.5 mM EDTA 2Na, 0.10% BSA, pH 7.0) was added thereto at 200 μL/well to prepare a plate stored at 4° C. overnight. […] (5) The plate was washed three times with PBST, and 15000-fold diluted Peroxidase-conjugated Affinipure F(ab)′2 Fragment Goat Anti-Mouse IgG (H+L) (Jackson) was added thereto at 100 μL/well, followed by shaking at room temperature for 1 hour. (6) The plate was washed three times with PBST, TMB Mix (1-step Ultra TMB-ELISA (Thermo Scientific):3% H₂O₂: Phosphate-Citrate buffer (Sigma)=15:0.15:14.85) was added thereto at 100 μL/well, and the mixture was reacted at room temperature for 10 minutes. Thereafter, 1 M H₂SO₄ was added thereto at 100 μL/well to stop the reaction. (7) Absorbance of the reaction solution at 450 nm was measured with a plate reader.

[2] = molecular target: T2, fCK18 in apoptosis-induced HepG2 cell culture supernatant (human, UniProt P05783 239-397); experiment: plate ELISA with K18-624 magnetic microbeads, K18-328Fab-ALP detector; fCK18 2.23 ng/mL
T2 construct: Natural CK18 fragment from the culture supernatant of apoptosis-induced HepG2 cells (band around 18 KDa); also called fCK18 in apoptosis-inducing cells
T2 sequence: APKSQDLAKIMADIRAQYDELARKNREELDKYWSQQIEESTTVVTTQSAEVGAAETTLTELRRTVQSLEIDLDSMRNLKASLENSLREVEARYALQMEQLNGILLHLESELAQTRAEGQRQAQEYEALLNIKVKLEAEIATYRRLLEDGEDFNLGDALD
Experimental: (§1) Measurement samples of 3-fold dilution series (3-fold to 6561-fold dilution) were prepared from the apoptosis-induced HepG2 cell culture supernatant with a diluent (TBS, pH 7.5, 2% BSA), and fCK18 was measured. […] Based on the prepared calibration curve, fCK18 in the measurement sample was measured.
(§2) This solution was added to an ELISA plate at 25 μL/well, then each measurement sample was added at 25 μL/well, and the plate was incubated (1500 rpm, RT, 20 min). […] (3) After washing the plate, the HISCL (registered trademark) R4 reagent was added thereto at 50 μL/well, and then the mixture was stirred (1500 rpm, RT, 1 min). Thereafter, the HISCL (registered trademark) R5 reagent was added at 100 μL/well, and then the mixture was stirred (1000 rpm, RT, 10 sec). (4) Luminescence intensity was measured with a plate reader.

[3] = molecular target: T2, fCK18 in apoptosis-induced HepG2 cell …; experiment: plate ELISA with K18-624 magnetic microbeads, K18-328Fab-ALP detector; fCK18 182.28 ng/mL
Experimental: as §1, §2

[4] = molecular target: T2, fCK18 in apoptosis-induced HepG2 cell …; experiment: HISCL sandwich immunoassay; K18-624 magnetic microbeads capture, K18-328Fab-ALP detector; fCK18 182.28 ng/mL

B1: K18-624 antibody (antibody, V domains shown)
VH: DVQLVESGGGLVQPGGSRKLSCAASGFTFSSFGMHWVRQAPEKGLEWVAYISSGSTTIYYADTVKGRFTISRDNPKNTLFLQMTSLRSEDTAMYYCARRGMITTGAWFAYWGQGTLVTVSA
VL: DILLTQSPAILSVSPGERVSFSCRASQRIGTSIHWYQQRTNGSPRLLIKYASESISGIPSRFSGSGSGTDFTLSINSVESEDIADYYCQQSYIWPFTFGSGTKLEIK
notes: Mouse monoclonal antibody from a hybridoma (Balb/C mouse immunised with Peptide 1-KLH)
Q: Does B1 bind [1]?
A: no binding (tested: 5 to 10 ng/mL)

Q: What about the S/N ratio [2] of the same binder?
A: 47.3

Q: What about the S/N ratio [3] of the same binder?
A: 5560

Q: And the S/N ratio [4]?
A: 2070

From patent US20220267427A1 (SYSMEX, published 2022)
